Values quoted from earlier work in patent US6319955A, “Use of MEK1 inhibitors as protective agents against damage due to ischemia” (priority 2000, dated 2001).

Details: compared with native tPA

B1: C84S tPA (protein, UniProt P00750 36-562, looked up, variant C84S)
Tissue-type plasminogen …: SYQVICRDEKTQMIYQQHQSWLRPVLRSNRVEYCWCNSGRAQCHSVPVKSCSEPRCFNGGTCQQALYFSDFVCQCPEGFAGKCSEIDTRATCYEDQGISYRGTWSTAESGAECTNWNSSALAQKPYSGRRPDAIRLGLGNHNYCRNPDRDSKPWCYVFKAGKYSSEFCSTPACSEGNSDCYFGNGSAYRGTHSLTESGASCLPWNSMILIGKVYTAQNPSAQALGLGKHNYCRNPDGDAKPWCHVLKNRRLTWEYCDVPSCSTCGLRQYSQPQFRIKGGLFADIASHPWQAAIFAKHRRSPGERFLCGGILISSCWILSAAHCFQERFPPHHLTVILGRTYRVVPGEEEQKFEVEKYIVHKEFDDDTYDNDIALLQLKSDSSRCAQESSVVRTVCLPPADLQLPDWTECELSGYGKHEALSPFYSERLKEAHVRLYPSSRCTSQHLLNRTVTDNMLCAGDTRSGGPQANLHDACQGDSGGPLVCLNDGRMTLVGIISWGLGCGQKDVPGVYTKVTNYLDWIRDNMRP
- in vivo half life, in words: longer in vivo half life than native tPA
